In a protein production outcome set (Wang et al. 2014):

Experiment: label from the status in PepcDB records

Sequence	protein production
MKREAEGGFQNRYLSNCPGSSRLRVWVPIVEASPGRRPYPFRCQPCNFRLGGRAVGGLAAAQPGGRPRWRRAARRAARAPAPPWLPLPSSPRSNPLTRLLPWFKSIDLNKPIDKRIYKGTQPTCHDFNQFTAATETISLLVGFSAGQVQYLDLIKKDTSKLFNEERLIDKTKVTYLKWLPESESLFLASHASGHLYLYNVSHPCASTPPQYSLLKQGEGFAVYAAKSKAPRNPLAKWAVGEGPLNEFAFSPDGRHLACVSQDGCLRVFHFDSMLLRGLMKSYFGGLLCVCWSPDGRYVVTGGEDDLVTVWSFTEGRVVARGHGHKSWVNAVAFDPYTTRAEETASASGDGDPSGEEEEPEATSSDTGAPVSPLPKAGSVTYRFGSAGQDTQFCLWDLTEDVLSPHPPLARTRTLPGTPGATPPASGGSRAGETGAGPLPRSLSRSNSLPHPAGGGKAGGPSVSMEPGVPFSIGRFATLTLQERRDRGAEKEHKRYHSLGNISRGGSGGNSSNDKLNGPAPRSRLDPAKVLGTALCPRIHEVPLLEPLVCKKIAQERLTVLLFLEDCIITACQEGLVCTWARPGKAFTDEETETQAGEASWPRSPSKSVVEGISSQPGSSPSGTVV	failed
MHLFIEGEIEHLVFPGLKSYIVPVWDLRTYQIFDMALRVHKNIQQRDMVIGRNLGNWILRGLDRMKPSAQVLLPKNTEPSIDKAKRVLQSTRLKPHVNTQTPQNREVDRNLFMSLRNFRSKYPIASMMMIKPPRSTGTTTQYRPYSVGESSLIKPIYARGGFNSVIRKDILQWMVQKR	failed
VIAAHGWAGDATVWRAWQQRFEARGWHWDAIERGYGQREPHQPSWAELPGQRLVIAHSLGLHLLPEKVLQQADAVVSLAGFAAFVPAGAAGRALGVALKGMASCLGTSDEPAMLRKFLSRCASPLPLSALPNNPLLRGMHPSGRQRLQDDLVLLQQCQSLPDGWPEGASVLVVQGEQDAIVCPDSRTQLLQALPPSRTDHRLRPDEGHAVVTPAVLDLVVRWAGN	failed
MESFHPLSLLKPSIRGWCIRGRVVRTFLVSLVPSSKVMGLILAEEHGMTIEATVGYKMSDHYKDFINEGEWVTITNFGVVENSGSVRATTHSFKIGFFVDIVVRLTSPLPAIPHYRLASFSSIIDDEIDKSVLVDLVGAIYDVGELINTRPKQNNVDDLTLIFKISDNENRVLECLATKKEALDFDHNYRRYGGGVIVAVLGWWKIDRYFDGPKNVRVCTAGTISTVFPDPDIPESNEIHEI	failed
MSQKGEAEGIARIRSAALFYIVAILITLVAVFAVFIPLIVSISSISSNLSNPNASSASAAAGGILSAVIGVIVVAVIVSIVILVFIILSFLRFRDGFSILQAIGRDVGIGKTGTTLILVGAILLIIPFLDIIGIILIFVGQILLGIGIYRIGEIYNNSLTKIGGILVAIPLIDITAFIGMIMTYVGVGQIQREFGMRPPLPPSSQIPSQQTGSGVLRGNGTADLNIYLQTQEQVVSAQILGTNYLTGLIVPNMLQPGFNNLTVNFNVPLNLMPNSIYVIRLNLASGRTLDVNVTFQP	failed
MVVNKRLILILLFILNTAKSDELSWKGNDFTLYARQMPLAEVLHLLSENYDTAITISPLITATFSGKIPPGPPVDILNNLAAQYDLLTWFDGSMLYVYPASLLKHQVITFNILSTGRFIHYLRSQNILSSPGCEVKEITGTKAVEVSGVPSCLTRISQLASVLDNALIKRKDSAVSVSIYTLKYATAMDTQYQYRDQSVVVPGVVSVLREMSKTSVPASSTTNGSPATQALPMFAADPRQNAVIVRDYAANMAGYRKLITELDQRQQMIEISVKIIDVNAGDINQLGIDWGTAVSLGGKKIAFNTGLNDGGASGFSTVISDTSNFMVRLNALEKSSQAYVLSQPSVVTLNNIQAVLDKNITFYTKLQGEKVAKLESITTGSLLRVTPRLLNDNGTQKIMLNLNIQDGQQSDTQSETDPLPEVQNSEIASQATLLAGQSLLLGGFKQGKQIHSQNKIPLLGDIPVVGHLFRNDTTQVHSVIRLFLIKASVVNNGISHG	failed
MWRSLLLPTCSHALIELHFFSHYCTIMMNQNTQPTNNLKDKKITYNFNKLQKRLRRNVGNAIANFNMIEAGDKVMVCLSGGKDSYTLLDILLNLKLSAPINFDIVAVNLDQKQPGFPEHILPEYLASIGVEYKIVQENTYGIVKEKIPEGKTTCSLCSRLRRGILYRTATELGATKIALGHHRDDMLETLFLNMFYNGKLKSMPPKLISDDAKHIVIRPLAYCKEKDIEKYAEAKQFPIIPCNLCGSQPNLQRQVVKEMLQNWDRQYPGRIETMFSALQNVTPSHLCDTQLFNFKAVKHGEMINGIEGDIAFDKMDIPMTLNIQEEDEKQAYTQNGTIQFKAV	failed
MNAYSQSLAPANTPLRETFSLDGTWEFRHETDRAWRHAKVPAHWQACFEDLAVSFGSATYRRTFTLPAEWSAREIAIRFGAVSDLATVSINGTEIGRHEGGYLPFEFVIPPALLKAENTVEVLACLPDAYRDESGADFAEIPHGKQSWYGPQGGIWQSVLIEARDPAHISSLRLDPIWPEARLDLKARFASMVAGSLKIEIIGPQGMPVFTGNIPAAGNTLDHSIQLDSVAPWSPDSPNLYTITTILSADGVEIDSRQESFGFRRFEAKDGFLHLNGKPLYLRAALDQDYYPDGFGAPPSLDLLEDQLRKAKAMGLNCLRCHIKVPDPRYYEVADRLGMLIWSEIPNIETFTPASAERLRTTMEGILARDGNHPSIVIWTLINEDWGTRLREAAEQRQWISDMVDWLRVEDPLRLVVDNSACFPNVHVKTDINDYHFYRTAVDRREEWDTLCREFAGNADWTFSTEKEAVRTRKEPLVLSEFGVWGLPDPARLREKNGRDPWWMAYGATWADGTALPQGIEARFRELALEKVFGDLGRFIEKVQWYQYMNLKYEIEVIRTHAPIGGYVITELTDVHWEGNGLMDMARNPRVFAKALPAVNSDIVIAPGAARHAVYEGQTASFDIKVSSGGTALPEGSRLVWEFGAEKGEIPLPAMAPMQVHNAPITTTADAVPVPAIQKARFQVVSPDGSVLSQNFETLAVYGKRDALPPIRFASNDDGISERLSALGHVSVSPHEADVFITKDIDADRVEAIHSGQRVLQIVDKDPGRLRDDAPPRDGPMSIEIDPGAGGMVSGPYFSFPGYNLVNRHKSIWRGDWVGNFSWLRRDGVFAHVPGGPLFDLSFTGVAPHQVMTGLRPWEFQGRVYAGVVIGWVHKPAAFIIEKRLGRGKLVATTFRLHQEAPDVDPLATALYDGLFALATRP	failed
MNIEQQLYDVVKQLIEQRYPNDWGGAAAIRVEDGTIYTSVAPDVINASTELCMETGAILEAHKFQKKVTHSICLARENEHSELKVLSPCGVCQERLFYWGPEVQCAITNAKQDIIFKPLKELQPYHWTEAYHDEMVKEWSTR	not failed
MDLVAWETLSFPVVSAAFGASAFLIAVVGTRMTRAADRLADETGLGEAIFGAVLLGSTTSIAGITTSVTAAVDGLPSLAISNAIGGIAAQTVFLAVADMAYRPANLEHAAASVENLLQGALLSTLLAIPLLGMAGPRLDLFGIHPASVLLVAGYLYGIHLVAEARSTPYWVARQTDKTRQDTGAEGRESAALSTLWLEFVALSLVVGAAGYVIAKTGGQVAARTGLSEGLVGGLFTAVSTSLPELVTSVAAVRRGALTLAVGGIIGGNSFDVLFVAFSDVGYQEGSIYHAMTEQQVFIIALTLLLTGILLMGLLRRERRGAFGIGFESFLALVLYFGAFGLLFV	failed
VQRPWLAPLPGAPMNACRLLLCFPYGGGGASAFNDLSRLADVGVATWAVKLPGREDRSMEAPVTRVANVIEAIVDALQSVGIPYAFYGHSFGAGLALDVAHALAERDRPLPTHLVLSGRMPPHTGYSPLLGAMDDNQLWQHVCSESLLPLPTDASCSFARHALGKLKADLALNAQLTYRFIRPLPVPLYVLNGQDDPLLELHRLDEWQRYTSTSFHSEYVPGGHFFFNINFQLLYLPLLTALD	not failed
MGHHHHHHSHPPRDLDSKACISIGNQNFEVKADDLEPIMELGRGAYGVVEKMRHVPSGQIMAVKRIRATVNSQEQKRLLMDLDISMRTVDCPFTVTFYGALFREGDVWICMELMDTSLDKFYKQVIDKGQTIPEDILGKIAVSIVKALEHLHSKLSVIHRDVKPSNVLINALGQVKMCDFGISGYLVDSVAKTIDAGCKPYMAPERINPELNQKGYSVKSDIWSLGITMIELAILRFPYDSWGTPFQQLKQVVEEPSPQLPADKFSAEFVDFTSQCLKKNSKERPTYPELMQHPFFTLHESKGTDVASFVKLILGD	not failed
MNSNRSLLVMGLLLVSFLIFTQWQQDFNPEIQAQKQAQQQSRDVPHATNTANAITEHMTKGKTITVESDVLRLVIDTLGGDVIESDLLAHKASLDSTDPLKLLTTEGLIYTAQSGLVGKNGIDTHIGRAPYQVTQDHFTLAKGQNEIVVPMTFEQDGVMYTKTFTLKRGSYDVAVSFDIQNNSANTIEVQPYGQIKHSLLDSSGNLAMPTYTGGAYSSSETNYKKYSFDEMTKANLNIDTKGGWVALLQHYFVSAWVPNQDASNTLYSRTHNGVATIGYRGPITTVKPNTKTTITSQLWTGPKDQKEMAQAATHLELTVDYGWAWFIAKPLFWLLIFIHSIIGNWGLAIMGVTLVVKSLLYPLTKAQYTSMAKMRMLQPKLQELRERYGDDRQQMSQEMMKLYKQEKVNPMGGCLPLILQMPIFIALYWTFMEAVELRHAPFFGWIQDLSAQDPYYIFPVLMGLSMFLLQKMSPTAVADPTQLKVMTFMPVIFTVFFLWFPSGLVLYWLTSNCITIVQQWLIYRNLEKKGLHTRKK	failed
MLIQDLSHKNIKDYTSIYGEEYINRIVEKAEKLRDITLTHVNSTSLGGGVAEILYSLVPLMNSIGITTRWEVIKGGNEFFNVTKKIHNALQGAEIDLSDEEKRIYLENNKWNVENELVLDSTHIVVHDPQPLPIRKFAENNKKWIWRCHIDLSTPYKPVWLFISQLLRGYEASIFHLKEYIHPETPTPIKYVMPPSIDPLSDKNKELSWSTIEKILNRYGIDPEKPILLQVARFDPWKDPFAAIDVYRLVKKEFPDTQLLLVTSMATDDPEGWIYYEKTLKYAGMDEDIFILTNLKNVGTLEVNAFQRAATVVLQMSRREGFGLAVTEALWKRKPVVARPRGGIKLQVIDGVTGHLAETVEEAAKKTIYLIKNPQKRKELGENGYKHVLKHFTIVRHIENYLDLLAKIV	failed
MLISIAFLLVLYLLNYSSFRMLKSFLTLKKISQYAYLWFFILLSIGEAAFVFYRNIMPSHLFVLTSACSFVSFIIFILSLSFYGFSYSIEKIDFLHSRRKSLKNFLKLGFYLALLGYFWRGFYEGLARPKIKETPIYLDKLDKELKIILLTDMHVGSLLQKDFVDYIVEEVNQKEVDMVLIGGDLVDESIEKVKSFLLPLNNLKSTHGTFYVPGNHEYYHGIEPILSFLDTLNLTILGNECVHLGGINLCGVYDYFARKRQNFAPDIDKALKKRNESKPTILLAHQPKQIRSLKESHSVDLVLSGHTHAGQIFPFSLLVKLAQTYLHGLYKHSPTTQIYVSSGAGYWGIPLRFLAPSEIAYLRLLPKNQA	failed
MSGVRFPSGSLKDVRFFLHLFFSSKYGIIYVRYLDEEGTIMKQIIISVGREFGSGGHIVAQKLAEHYDIPIFNKELLEEMARKEGYSEKALEKYDEKPVNFGFMPLPYAGGNIPIEQEIAMKQFEFIKNKADAGESFVIVGRCADEILAYNPNLVSVFITGDRESKIARVMDREGLDRKQAINKMKRMDKIRKTYHNFYCRNKWGDSRGYDICINTGKTDFDTAKNMVVECVDKLKERSE	failed
MAEGKPDEQLFQLLSGLLQQVESLTNTEEVELRSKIEALGLEVTKVPSKSAQHLNEVEIAKELDKLSAKLDDVDEMISSAIASDPQVQTLLSGTADVWMPVITAGAEERLNFTASLADDDDLSNKETTTDNTSSS	not failed
MMMKIGDKLKGKITGIKPYGAFVQLENGSIGLIHISEIKTGYIDNIYQTLSVGQEVLVQVVDYDEYSQKASLSLRTLEEEKHHYQHRHRFSNNRLNIGFKPLEEHLPIWVEENLDYLKKDQDESDNQAKD	failed
MTSSLQPDASRDAQREQVIAQLQQVIQRVPEQSEFTNTRRYQLLGPLFTLISLGMLAWGIQQGKTGMLLCGLFLSALFALVTWQHRHAGQHAFMRLTRRQLFVDSLSAPVNLTDVVDVHVKDEGLLTLQQLTLRPGSPLPTHRPVRQVFGNQAMALKSPEPHIRIHSAGLMSGGRKLAIDDIAALLDAYCQAANAQQQLDELQGRG	failed
